Assay results from patent US20220396632A1 (VERSEAU THERAPEUTICS, published 2022).

Key:
[1] = target: T1, Biotin PSGL-1(42-62) D50A peptide (C-terminal Lys-biotin); experiment: ELISA; against wild-type PSGL-1 42-62
T1 peptide: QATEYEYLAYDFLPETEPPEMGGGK

[2] = target: T2, Biotin Y46,48,51(SO3) PSGL-1(42-62) peptide (human, sulfotyrosine at Y46, Y48 and Y51; C-terminal Lys-biotin); experiment: ELISA, plate-bound mAb captures biotin 3 x sY peptide
T2 construct: also called fully sulfated N-terminal PSGL-1 peptide
T2 peptide: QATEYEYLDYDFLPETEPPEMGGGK
Procedure: A typical ELISA for N-terminal PSGL-1 reactive humanized mAbs binding to Y_{46,48,51}(SO₃) PSGL-1₍₄₂₋₆₂₎ involved coating high binding half-well plates (Corning Cat. #3690) with 3 ug/mL/25 ul per well of the mAbs or with an isotype hG4 control in PBS, pH 7.4, overnight at 4° C. […] Biotinylated Y_{46,48,51}(SO₃) PSGL-1₍₄₂₋₆₂₎ was added (25 ul per well) in duplicate at 2.8 uM in assay buffer (blocking buffer containing 0.05% tween 20) and serially diluted into test and control (just blocked) wells, and the plate incubated for 45 min at 37° C. The plate was washed ×3 and an appropriate HRP-conjugated streptavidin was added (25 ul per well; Jackson Immunoresearch, Cat. #016-030-084) and the plate was incubated for 45 min at 37° C. […] For each antibody, an EC50 value was determined from sigmoidal fitted peptide titration curve.

[3] = target: T3, Biotin PSGL-1(42-62) L49A peptide (C-terminal Lys-biotin); experiment: alanine-scan ELISA, streptavidin-immobilized biotin peptide
T3 peptide: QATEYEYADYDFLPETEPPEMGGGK

[4] = target: T4, Biotin PSGL-1(42-62) P55A peptide (C-terminal Lys-biotin); experiment: as above
T4 peptide: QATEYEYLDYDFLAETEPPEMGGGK

[5] = target: T5, Biotin PSGL-1(42-62) E56A peptide (C-terminal Lys-biotin); experiment: as above
T5 peptide: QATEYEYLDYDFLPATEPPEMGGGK

[6] = target: T6, Biotin PSGL-1(42-62) E45A peptide (C-terminal Lys-biotin); experiment: ELISA; against wild-type PSGL-1 42-62
T6 peptide: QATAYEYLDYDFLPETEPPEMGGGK

[7] = target: T7, Biotin PSGL-1(42-62) Y46A peptide (C-terminal Lys-biotin); experiment: ELISA; against wild-type PSGL-1 42-62
T7 peptide: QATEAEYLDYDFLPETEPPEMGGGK

[8] = target: T8, Biotin PSGL-1(42-62) L54A peptide (C-terminal Lys-biotin); experiment: ELISA; against wild-type PSGL-1 42-62
T8 peptide: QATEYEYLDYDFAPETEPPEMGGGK

[9] = target: T9, Recombinant human PSGL-1(ECD)-hFc1 (R&D Systems, Cat. 3345-PS) (human, UniProt Q14242 42-305); experiment: ELISA, plate-bound target
T9 construct: Bought; Gln42-Val295 counted on AAC50061; also called PSGL-1-Fc; PSGL-1-hFc1 chimera; not shown: human IgG1 Fc, Pro100-Lys330
T9 sequence: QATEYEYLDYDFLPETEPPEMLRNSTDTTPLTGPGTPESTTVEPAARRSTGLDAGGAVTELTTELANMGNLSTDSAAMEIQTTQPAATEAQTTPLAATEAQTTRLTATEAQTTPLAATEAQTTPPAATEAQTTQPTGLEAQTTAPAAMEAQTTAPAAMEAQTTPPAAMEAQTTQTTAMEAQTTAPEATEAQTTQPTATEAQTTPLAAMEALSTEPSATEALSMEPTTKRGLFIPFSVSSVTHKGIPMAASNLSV
Method in brief: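 Direct format: anti-PSGL-1 mAb at a single concentration (2–500 nM) or serially diluted (0.002–100 nM) on immobilized target, detected with HRP anti-IgG and TMB at A450; 45 min steps at 37° C. Capture format: coated mAb (3 ug/mL) binds biotinylated unmodified or sulfotyrosine peptide (3 nM–3 uM), detected with HRP-streptavidin.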

[10] = target: T5, Biotin PSGL-1(42-62) E56A peptide; experiment: ELISA; against wild-type PSGL-1 42-62
[11] = target: T10, Biotin PSGL-1(105-125) peptide (human, N-terminal acetyl; C-terminal Lys-biotin); experiment: ELISA, plate-bound peptide or protein
T10 peptide: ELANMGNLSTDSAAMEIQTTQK
Procedure: A typical ELISA experiment involved binding of a single concentration or serially diluted mAb in assay buffer (3% BSA in PBS containing 0.05% Tween®20, pH 7.4) onto BSA blocked high binding microtiter plate half-wells (Corning Cat. #3690), which contained PSGL-1 protein or streptavidin-immobilized biotin peptide. After incubation for 45 min. at 37° C., the plate was washed 3 times with wash buffer (PBS containing 0.05% Tween®20, pH 7.4), and an appropriate HRP-conjugated secondary antibody added (25 ul/well) (HRP goat anti-mouse or anti-human IgG). After 45 min. incubation at 37° C., the plate was washed and antibody bound to plate-immobilized target was determined at A450 nm using HRP substrate (3,3′5,5′-tetramethylbenzidine (TMB)). For each antibody, duplicate values were averaged and assay background subtracted.

B1: 18F02 (antibody, V domains shown)
VH: QVQLQQPGAELVKPGASVKLSCKASGYTFTSYWMHWVKQRPGQGLEWIGMIHPNSGRTNYNEKFKSKATLTVDKSSSTAYMQLSSLTSEDSAVYYCARSDYWGQGTTLTVSS
VL: DIVMTQAAFSNPVTLGTSASISCRSSKSLLHSDGITYLYWFLQRPGQSPQLLIYRMSNLASGVPDRFSGSGSGTDFTLRISRVEAEDVGVYYCAQMLEFPRTFGGGTKLEIK
notes: From mouse immunisation; only variable domains given
For B1, the EC50Ala/EC50 wt [1] was 35.6 fold, the EC50 [2] was 70 nM and the binding result [3] was “binds”. B1: binds [4]; binds [5].

B2: 16L15 (antibody, V domains shown)
VH: DVKLVESGGGLVKLGGSLKLSCAASGFTFSSYYMSWVRQTPEKRLEWVATISNGGGSTYYPDSVKDRFTISRDNAKNTLYLQMSSLNSEDTAVYYCAKPLYYSNPWFAYWGQGTLVTVSA
VL: DVLLTQTPLSLPVSLGDQASISCRSSQSIVHSNGNTYLEWYLQKPGQSPKLLIYKVSNRFSGVPDRFSGSGSGTDFTLKISRVEAEDLGVYYCFQGSHVPRTFGGGTKLEIK
notes: as for B1
Work on B2 yielded an EC50Ala/EC50 wt [6] of 5.6 fold and an EC50Ala/EC50 wt [7] of 4.7 fold.

B3: 9F9 (antibody, V domains shown)
VH: EVQLVETGGGLVQPKGSLKLSCAASGFTFNTNAMNWVRQAPGKGLEWVARIRSKSNNYATYYADSVKDRFTISRDDTQSMIYLQMNNLKTEDTGMYYCVRGGSYWYFDVWGAGTTVTVSS
VL: DVLMTQTPLSLPVSLGDQASISCRSSQSIVNSNGNTYLEWYLQKPGQSPKLLIYKVSNRFSGVPDRFSGSGSGTDFTLKISRVEAEDLGVYYCFQGSHVPWTFGGGTKLEIK
notes: Control anti-PSGL-1 mAb, recombinant; only variable domains given; also called 9F6
Work on B3 yielded an EC50Ala/EC50 wt [8] of 14.4 fold.

B4: 20I15 (antibody, V domains shown)
VH: EVKLVESGGGLVQPGGSLSLSCAASGFTFTDYYMSWVRQPPGKALEWLGFIRNKANGYTTEYSASVKGRFTISRDNSQSILYLQMNALRAEDSATYYCARTYLRRGYFDVWGTGTTVTVSS
VL: DIVLTQSPASLAVSLGQRATISCRASKSVSTSGYSYMHWFQQKPGQPPKLLIYLASNLESGVPARFSGSGSGTDFTLNIHPVEEEDAATYYCQHSRELPLTFGAGTKLELK
notes: From mouse immunisation; only variable domains given; also called 20115
B4 gave an EC50 [9] of 0.26 nM.

B5: 43B6 (antibody, V domains shown)
VH: EVQLQQSGPDLVKPGALVKISCKASGYSFTAYYIHWVKQSHGKSLEWIGRVNPNTGGTSYNPKFKGKAILNVDKSSSTAYMELRSLTSEDSAVYYCARSGSPYYRYDDWGQGTTLTVSS
VL: ENVLTQSPAIMSASPGEKVTMTCRASSTVNSTYLHWFQQKSGASPKLWIYGSSNLASGVPARFSGSGSGTSYSLTISSVEAEDAATYYCQQYSGYPLTFGAGTTLELK
notes: Control anti-PSGL-1 mAb, recombinant; only variable domains given; also called 43B3
With B5 the EC50Ala/EC50 wt [10] was 22.3 fold.

B6: 16E17 (antibody, V domains shown)
VH: QIQLVQSGPELKKPGETVKISCKASGYAFTTYGMSWVKQAPGKGLKWMGWINTYSGVPKYADDFKGRFAFSLETSASTAYLHINNLKNEDTATYFCGRHYYGSSYFDYWGQGTTLTVSS
VL: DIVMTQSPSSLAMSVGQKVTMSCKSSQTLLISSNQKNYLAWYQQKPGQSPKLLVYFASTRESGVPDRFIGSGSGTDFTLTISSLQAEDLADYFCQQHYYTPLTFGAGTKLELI
notes: as for B1
Binder B6 has an EC50 [11] of 26.7 nM.
